For orientation: Kd means the equilibrium constant for the complex coming apart. A higher Kd goes with weaker binding.

The text below walks through data of publication PMC3506534, “LL-37 Induces Polymerization and Bundling of Actin and Affects Actin Structure” (PLoS ONE, 2012).

This experiment concerns the target rabbit skeletal muscle α-actin (rabbit, UniProt P68135 1-377). Put plainly: SPR; BIACORE 3000; actin (10 µg/ml) amine-coupled to a CM5 chip, 1500-1800 RU; running buffer 10 mM HEPES pH 7.4, 150 mM NaCl, 0.005% tween 20; 25°C, 40 µl/min; LL-37 0-500 nM, 1:1 Langmuir model; sLL-37 0-2500 nM, steady state affinity model. The settings on record: both partners purified. For orientation: SPR reads the build-up and loss of mass on a sensor chip optically.

B1: scrambled LL-37 (peptide)
peptide: GLKLRFEFSKIKGEFLKTPEVRFRDIKLKDNRISVQR
notes: scrambled order of the residues of LL-37; same net number of positive charges; also called sLL-37; source: bought: Genemed Synthesis Inc; purified by HPLC, purity greater than 90%
In the case of B1, the equilibrium dissociation constant (Kd) was found to be 138 µM.
